Data: article PMC2705190

Assays:
[1] = biological target: HIV-1 integrase, wild type, full-length (HIV-1); test: SEC; analytical SEC as for IN alone, but 0.3 mg/ml LEDGF IBD pre-incubated with IN on ice for 5 min before injection; Shodex KW403-4F on ice, 750 mM NaCl, 10 mM MgCl2, 20 mM HEPES-NaOH pH 7.0
[2] = biological target: HIV-1 integrase, wild type, full-length (HIV-1); test: cross-linking; BS3 (2-0.2 mM), 3 µM IN or 1.5 µM each of two mutants, 0.75 M NaCl, 2 mM MgSO4, 25 µM ZnCl2, 25 mM Hepes-NaOH pH 7.5, 30 min at 18°C; SDS-PAGE, Sypro Orange
[3] = biological target: HIV-1 integrase, wild type, full-length (HIV-1); test: SEC; analytical SEC of IN alone (or an equimolar mixture of two mutants); Shodex KW403-4F column on ice, 750 mM NaCl, 10 mM MgCl2, 20 mM HEPES-NaOH pH 7.0; 35 µl IN at 0.6 mg/ml with 25 µM ZnCl2 and 2.8 mM CHAPS

Row | Substance | stoichiometry N (per IN tetramer) [1] | stoichiometry N [2] | stoichiometry N [3]
1 | integrase binding domain of lens epithelium derived growth factor (LEDGF IBD) (from UniProt O75475 1-435) (domain or fragment) | 4 | – | –
2 | HIV-1 integrase, wild type, full-length (enzyme) | – | 4 | 4
